T1: CEACAM1 (Sino Biological) (human, UniProt P13688 35-428, limits assumed)
T1 construct: may be the same as CEACAM1-HIS; also called hCEACAM1; biotinylated soluble CEACAM1
T1 sequence: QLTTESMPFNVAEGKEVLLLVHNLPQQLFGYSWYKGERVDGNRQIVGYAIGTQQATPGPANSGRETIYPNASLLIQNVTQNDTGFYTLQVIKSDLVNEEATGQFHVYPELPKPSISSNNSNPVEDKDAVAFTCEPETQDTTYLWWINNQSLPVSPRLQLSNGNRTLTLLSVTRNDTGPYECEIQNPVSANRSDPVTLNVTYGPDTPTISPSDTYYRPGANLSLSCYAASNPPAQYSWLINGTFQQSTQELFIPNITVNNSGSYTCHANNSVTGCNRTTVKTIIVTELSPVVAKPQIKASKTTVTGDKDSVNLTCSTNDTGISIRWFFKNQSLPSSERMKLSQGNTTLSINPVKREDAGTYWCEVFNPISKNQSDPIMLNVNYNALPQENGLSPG

T2: CEACAM3 (Sino Biological) (human, UniProt P40198 35-155, limits assumed)
T2 construct: also called hCEACAM3
T2 sequence (looked up): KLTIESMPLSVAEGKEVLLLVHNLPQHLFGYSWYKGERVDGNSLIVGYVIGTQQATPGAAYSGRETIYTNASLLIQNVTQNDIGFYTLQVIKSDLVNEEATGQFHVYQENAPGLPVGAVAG

T3: CEACAM1-HIS (Sino Biologics Inc.) (Homo sapiens (Human), UniProt P13688 35-428)
T3 construct: bought; not shown: His tag
T3 sequence: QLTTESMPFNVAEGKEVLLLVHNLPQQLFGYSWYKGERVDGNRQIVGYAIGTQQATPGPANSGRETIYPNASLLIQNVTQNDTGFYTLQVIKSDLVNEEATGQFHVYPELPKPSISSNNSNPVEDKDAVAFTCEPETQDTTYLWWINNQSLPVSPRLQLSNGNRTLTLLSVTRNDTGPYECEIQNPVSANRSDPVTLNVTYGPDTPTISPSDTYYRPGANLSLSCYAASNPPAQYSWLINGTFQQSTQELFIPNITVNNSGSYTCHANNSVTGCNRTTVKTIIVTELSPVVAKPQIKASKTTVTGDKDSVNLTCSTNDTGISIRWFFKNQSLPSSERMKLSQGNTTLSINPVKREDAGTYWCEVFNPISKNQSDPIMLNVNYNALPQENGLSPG

T4: human GST-CEACAM1 (human, UniProt P13688 35-141, limits assumed)
T4 construct: printed both as GST-CEACAM1 and CEACAM1-GST; also called human CEACAM1-GST protein; hCEACAM1-GST; not shown: GST tag
T4 sequence: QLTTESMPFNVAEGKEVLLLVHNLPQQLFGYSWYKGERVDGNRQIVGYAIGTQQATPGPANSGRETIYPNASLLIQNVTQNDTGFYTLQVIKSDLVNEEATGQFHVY


What was measured:
[1] = target: T1, CEACAM1 (Sino Biological); assay: SPR single-cycle
Procedure, shortened: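 Humanized affinity-matured IgGs from crude supernatants captured on Protein A to ~100 RU, with CEACAM1 analyte injected at 25–100 nM (three-point, two-fold) in HBS-P+ without regeneration. 200 s association per injection, 300 s single dissociation; reference-channel and blank subtracted.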

[2] = target: T1, CEACAM1 (Sino Biological); assay: SPR multi-cycle, IgG on Protein A
Protocol: Multi-cycle kinetics analysis was performed on the twelve lead antibodies using a Biacore T200 instrument running Biacore T200 Evaluation Software V3.0.1 (Uppsala, Sweden) to establish an accurate affinity for CEACAM1. The purified antibodies were diluted to a concentration of […] in HBS-P+. At the start of each cycle, each antibody was captured on the Protein A surface to give an RL of ˜100 RU. Following capture, the surface was allowed to stabilize. Kinetic data was obtained using a flow rate of […] to minimize any potential mass transfer effects. For the kinetics analysis, CEACAM1 was used. Multiple repeats of the blank ([…]) and a repeat of a single concentration of the analyte were programmed into the kinetic run in order to check the stability of both the surface and analyte over the kinetic cycles. For kinetic analysis, a two-fold dilution range was selected from 200 to 3.125 nM CEACAM1. The association phase of CEACAM1 was monitored for 275 seconds and the dissociation phase was measured for 250 seconds. Regeneration of the Protein A surface was conducted using two injections of 10 mM glycine-HCL pH 1.5 at the end of each cycle.
The signal from the reference channel Fc1 was subtracted from that of Fc2, Fc3 and Fc4 to correct for differences in non-specific binding to a reference surface, and a global Rmax parameter was used in the 1-to-1 binding model. The relative KD was calculated by dividing the KD of the RSB02 Parent by that of the humanized and affinity matured variants on the same chip.

[3] = target: T2, CEACAM3 (Sino Biological); assay: binding ELISA on plate-coated CEACAM (0.5 µg/mL); antibody at 1.67, 0.062 and 0.0069 µg/mL; signal as % of parent IgG on CEACAM1 at 1.67 µg/mL on the same plate
[4] = target: T3, CEACAM1-HIS (Sino Biologics Inc.); assay: SPR single-cycle, IgG on Protein A
Protocol: (§1) As an alternative approach to assess the binding of the antibody combinations and the control antibodies to CEACAM1, a kinetic analysis was performed on a Biacore T200 running Biacore T200 Evaluation Software V2.0.1. All experiments were run at 25° C. with HBS-P+ running buffer (pH 7.4).
In order to assess the binding of all Composite Human Antibody™ variants, single cycle kinetic analysis was performed on the supernatants of all the transiently transfected HEK EBNA cells. Purified chimeric antibody and purified chimeric antibody spiked into HEK EBNA media were used as positive controls. Supernatants were diluted in HBS-P+ to a concentration of 1 μg/mL (as determined by an IgG quantitation ELISA). At the start of each cycle, antibodies were loaded onto Fc2, Fc3 and Fc4 of a Protein A chip and captured at a flow rate of 8 μL/min to give an RU of ˜100. The surface was then allowed to stabilize. Single cycle kinetic data was obtained at a flow rate of […] to minimize any potential mass transfer effects. Multiple repeats of the chimeric antibody were performed to check the stability of the surface and analyte over the kinetic cycles. The signal from the reference channel Fc1 (no antibody) was subtracted from that of Fc2, Fc3 and Fc4 to correct for differences in non-specific binding to a reference surface. A 5 point 2-fold dilution range from 3.125 to 50 nM CEACAM1 without regeneration between each concentration was used. The association phase for the 5 injections of increasing concentrations of CEACAM1 was monitored for 150 seconds and a single dissociation phase was measured for 150 seconds following the last injection of CEACAM1. Regeneration of the Protein A was conducted using 2 injections of 10 mM glycine-HCL pH 1.5 followed by a stabilization period of 500 seconds.
In the raw sensorgrams for the single cycle kinetics, the signal from each antibody blank run (no CEACAM1) was subtracted to correct for differences in surface stability.

[5] = target: T3, CEACAM1-HIS (Sino Biologics Inc.); assay: SPR multi-cycle
[6] = target: T3, CEACAM1-HIS (Sino Biologics Inc.); assay: SPR multi-cycle, IgG on Protein A
Protocol: as §1
For multi-cycle kinetic analysis purified antibody was immobilized at a protein concentration of 1 μg/mL in HBS-P+. At the start of each cycle, antibody was captured on Protein A to give an RU of ˜100 and the surface allowed to stabilize. Kinetic data was obtained at a flow rate of 35 μl/min to minimize any potential mass transfer effects. Multiple repeats of the blank (no CEACAM1) and a repeat of a single concentration of the analyte were programmed into the kinetic run in order to check the stability of both the surface and analyte over the kinetic cycles. For kinetic analysis, a 2-fold dilution series was selected from 100 to 1.5625 nM CEACAM1. The association phase of CEACAM1 was monitored initially for 180 seconds. In the subsequent experiment a longer association time (275 seconds) was used in order to better reach steady state. The dissociation phase was measured for 250 seconds. Regeneration of the Protein A surface was conducted using 2 injections of 10 mM glycine-HCL pH 1.5 at the end of each cycle.
The signal from the reference channel Fc1 was subtracted from that of Fc2, Fc3 and Fc4 to correct for differences in non-specific binding to a reference surface, a global Rmax parameter was used in the 1-to-1 binding model. The relative KD compared to the chimeric parental antibody was calculated by dividing the KD of the Composite Human Antibody™ variants by that of the chimeric parental antibody on the same chip.

[7] = target: T4, human GST-CEACAM1; assay: competition ELISA vs murine parent antibody
Protocol: The binding of the purified chimeric antibody to human CEACAM1 was assessed in a competition ELISA assay. Nunc Immuno MaxiSorp 96 well flat bottom microtitre plates were pre-coated with 1 μg/ml human GST-CEACAM1 in 1×PBS, overnight at 4° C. The following day the plates were blocked for 1 hour at room temperature with 2% BSA/PBS before washing 2× with PBS/0.05% Tween 20 pH 7.4.
The binding of the purified antibodies to human CEACAM1 were assessed in a competition ELISA assay as described above. The ability of each variant to compete against the murine parental antibody for binding to the GST-CEACAM1 was compared to that of the chimeric antibody (VH0/Vκ0), which was included on each plate.

| Binder | Kd [1] [nM] | fold better than Parent (KD) [1] [fold] | Kd [2] [nM] | koff [2] [s⁻¹] | kon [2] [M⁻¹ s⁻¹] | relative KD to Parent [2] [ratio] | binding result [3] | Kd [4] [nM] | relative KD to chimeric parental antibody [4] [ratio] | average relative KD to chimeric parental antibody [5] [ratio] | relative KD to chimeric parental antibody expt 1 [5] [ratio] | relative KD to chimeric parental antibody expt 2 [5] [ratio] | Kd [6] [nM] | koff [6] [s⁻¹] | kon [6] [M⁻¹ s⁻¹] | relative KD to chimeric parental antibody [6] [ratio] | average relative IC50 (normalized to chimeric antibody) [7] [ratio] |
| --- | --- | --- | --- | --- | --- | --- | --- | --- | --- | --- | --- | --- | --- | --- | --- | --- | --- |
| He17/L1 (antibody, IgG4, V domains shown, IgG4 S241P, kappa; also called 17 / 1; H17/L1) VH: EVQLLESGGGLVQPGGSLRLSCAASGFSFSDYYLYWVRQAPGKGLEWVATISVGGGQTSYADSVKGRFTISRDNSKNTLYLQMNSLRAEDTAMYYCTRARTYGPAWFAYWGQGTLVTVSS VL: DIVMTQSPDSLAVSLGERATINCKSSQSLLNSANQKNYLAWYQQKPGQPPKLLIYFASTRESGVPDRFSGSGSGTDFTLTISSLQAEDVAVYYCQSHYPFYYTFGGGTKVEIK | 78 | 2.03 | 13.5 | 0.00409 | 302000 | 6.31 | no binding (tested: 1.67 µg/mL) |  |  |  |  |  |  |  |  |  |  |
| VH2/Vκ1 (antibody, V domains shown) VH: EVQLLESGGGLVQPGGSLRLSCAASGFIFSSHGMSWVRQAPGKGLEWVATISSGGTYTYYPDSVKGRFTISRDNSKNTLYLQMNSLRAEDTAMYYCARHDFDYDAAWFAYWGQGTLVTVSS VL: QIVLTQSPALLSLSPGERATMSCSANSSVSYMYWYRQKPGQAPKPWIYLTSNLASGVPARFSGSGSGTDYTLTISSLEAEDFATYYCQQWSSNPPTFGQGTKLEIK |  |  |  |  |  |  |  | 180 | 4.2 | 1.31 | 1.39 | 1.22 | 33.3 | 0.0052 | 156000 | 1.22 | 1.7 |
| VH1/Vκ2 (antibody, V domains shown) VH: EVQLLESGGGLVQPGGSLRLSCAASGFIFSSHGMSWVRQAPGKGLEWVATISSGGTYTYYPDSVKGRFTISRDNSKNTLYLQMNSLKAEDTAMYYCARHDFDYDAAWFAYWGQGTLVTVSS VL: EIVLTQSPATLSLSPGERATLSCRANSSVSYMYWYQQKPGQAPRPWIYLTSNRATGVPARFSGSGSGTDYTLTISSLEPEDFATYYCQQWSSNPPTFGQGTKLEIK |  |  |  |  |  |  |  | 148 | 3.4 | 1.46 | 1.66 | 1.27 | 28.3 | 0.00551 | 195000 | 1.27 | 1.3 |

The next lines start with the values.

| Kd [1] [nM] | fold better than Parent (KD) [1] [fold] | Kd [2] [nM] | koff [2] [s⁻¹] | kon [2] [M⁻¹ s⁻¹] | relative KD to Parent [2] [ratio] | binding result [3] | Kd [4] [nM] | relative KD to chimeric parental antibody [4] [ratio] | average relative KD to chimeric parental antibody [5] [ratio] | relative KD to chimeric parental antibody expt 1 [5] [ratio] | relative KD to chimeric parental antibody expt 2 [5] [ratio] | Kd [6] [nM] | koff [6] [s⁻¹] | kon [6] [M⁻¹ s⁻¹] | relative KD to chimeric parental antibody [6] [ratio] | average relative IC50 (normalized to chimeric antibody) [7] [ratio] | Binder |
| --- | --- | --- | --- | --- | --- | --- | --- | --- | --- | --- | --- | --- | --- | --- | --- | --- | --- |
|  |  |  |  |  |  |  | 93.4 | 2.2 | 1.45 | 1.5 | 1.4 | 38.1 | 0.00384 | 101000 | 1.4 | 1.5 | VH1/Vκ1 (antibody, V domains shown) VH: EVQLLESGGGLVQPGGSLRLSCAASGFIFSSHGMSWVRQAPGKGLEWVATISSGGTYTYYPDSVKGRFTISRDNSKNTLYLQMNSLKAEDTAMYYCARHDFDYDAAWFAYWGQGTLVTVSS VL: QIVLTQSPALLSLSPGERATMSCSANSSVSYMYWYRQKPGQAPKPWIYLTSNLASGVPARFSGSGSGTDYTLTISSLEAEDFATYYCQQWSSNPPTFGQGTKLEIK |
|  |  |  |  |  |  |  | 138 | 3.2 | 1.27 | 1.29 | 1.25 | 27.8 | 0.00496 | 179000 | 1.25 | 1.6 | VH2/Vκ2 (antibody, V domains shown) VH: EVQLLESGGGLVQPGGSLRLSCAASGFIFSSHGMSWVRQAPGKGLEWVATISSGGTYTYYPDSVKGRFTISRDNSKNTLYLQMNSLRAEDTAMYYCARHDFDYDAAWFAYWGQGTLVTVSS VL: EIVLTQSPATLSLSPGERATLSCRANSSVSYMYWYQQKPGQAPRPWIYLTSNRATGVPARFSGSGSGTDYTLTISSLEPEDFATYYCQQWSSNPPTFGQGTKLEIK |

— patent publication US20250388666A1 (BRIGHAM AND WOMEN S HOSPITAL, published 2025)
